Assay results reported in the supplement of paper PMC9732359.
± gives the uncertainty stated by the source.

Experiment: protein stability index of a GFP-peptide fusion (yeast GPS) (PSI 1-4); higher = more stable; sorted into four equal gates, so the index is relative within each strain
Conditions: san1∆
How it was run: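 Peptides tiling yeast proteins in 17-residue segments were fused downstream of GFP, with Cherry expressed from the same plasmid. As a pooled library in yeast, mid-log cultures grown in leucine-free medium were sorted into four equal gates by GFP/Cherry fluorescence ratio. Gate plasmids were PCR-amplified and Illumina-sequenced, and barcodes linked reads to strains. Each peptide received a protein stability index equal to the sum of each gate's read frequency times its gate number.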

Sequence | protein stability index
VMESGAKGCEVVVSGKL [RPS3] | 3 ± 0.24
VMNTKLLQEGGSLSGNS [ESC2] | 3.13 ± 0.099
VNADDDDFMHSETREKE [RPB4] | 2.35 ± 0.089
VNADTVGKTVKQLIMES [NSL1] | 2.94 ± 0.058
VNAMRVLYYRDARSSRN [PRE4] | 2.57 ± 0.26
VNDRSDISDSEGGLFEC [PCI8] | 3.45 ± 0.071
VNDTVKIDLASGKITDF [RPS4A] | 3.26 ± 0.12
VNGFLNLGYCNDKLIVD [RPN1] | 2.89 ± 0.052
VNITKFSKFERSKSSHK [SKI6] | 2.76 ± 0.064
VNTEKKTIEVTAEINCF [RPN3] | 1.78 ± 0.21
VNTTRRFQYSDDEPAEK [YMR129W/POM152] | 2.86 ± 0.19
VNVLLQSYFSQLKFEGF [BRR2] | 1.28 ± 0.074
VPAVVDDPLENMFGDYS [SNF6] | 2.85 ± 0.17
VPQGKIVALTNAKDKER [SMC3] | 2.83 ± 0.15
VPQSEETRAELSQLCAV [RPO21] | 2.79 ± 0.067
VQDIIGNGKLSEHFLYL [RPN1] | 3.29 ± 0.26
VQLLSKSHNAHVRCGTA [RPN2] | 1.57 ± 0.08
VQQFAQLPVGFKNMGNT [UBP6] | 1.44 ± 0.15
VQVGPMKVFVTKHLMPQ [RPB7] | 2.14 ± 0.062
VQYKLLSISVPSDVNID [SNU114] | 2.1 ± 0.074
VREFQRRLAFLGIKVAE [BRR2] | 1.04 ± 0.23
VRIYSGLLKRGDTVRIL [SNU114] | 2.66 ± 0.17
VRMLASPMLYKVPDISS [BRR2] | 1.96 ± 0.1
VRNLQGIQEVVHNTNSF [NUT1] | 2.94 ± 0.063
VRNYKPLINRLKHYNGY [SWI1] | 2.57 ± 0.06
VRRLEAQRNALNDKVRF [RPT6] | 2.77 ± 0.13

Sequence | protein stability index
VRSAEYYAKKRAFTKKV [RPL16B] | 2.61 ± 0.091
VRSLPKEEQPKQIIVTR [PRP8] | 2.21 ± 0.12
VRSREDRKNRAPPQRPR [RPS26A] | 2.76 ± 0.12
VRWIETQDVFLKDFNTE [FAS2] | 3.014 ± 0.025
VSEDLLDERGHEKIEDE [RPN4] | 3.71 ± 0.08
VSFNGFKLPKKFPPPTP [BRR2] | 2.8 ± 0.06
VSGNNASDEPSRKKNRR [SSN3] | 2.78 ± 0.14
VSKKWAAAGVCEKWAAS [RPL14B] | 2.73 ± 0.084
VSMKANKYQIKKAVKEL [RPL25] | 2.98 ± 0.056
VSNIEGILDEIMFNHAR [RGR1] | 2.46 ± 0.065
VSNNVLRRLEILVPDLY [ECM29] | 1.56 ± 0.11
VSSLPGSTDKSLDFLNQ [COR1] | 3.02 ± 0.28
VTFSPTGRLFQVEYALE [PRE5] | 2.93 ± 0.23
VTKETVHPRKSYKMNSS [PRP8] | 2.96 ± 0.048
VTLFQMAILLLYNDADV [CDC53] | 1.67 ± 0.099
VTNDLDTSAEKDQIQAG [SIR4] | 3.28 ± 0.11
VTRTQQWSMVAQRLQIS [SWI1] | 2.27 ± 0.07
VTSEKYPFDKLESWWLV [BRR2] | 2.79 ± 0.12
VTSMEAAREKKIRELEA [YIL149C/MLP2] | 2.92 ± 0.07
VVDANGCVNSLISGPRN [YMR129W/POM152] | 2.97 ± 0.13
VVDQLWSEISNELPDIE [RPN2] | 2.75 ± 0.12
VVEGVTFVVEQLIKQSI [SNU114] | 3.44 ± 0.098
VVEISNGNTSSKTVVTL [FAS1] | 3.28 ± 0.072
VVESVGAEVDEARINEL [RPP2B] | 3.35 ± 0.095
VVGTETRVNAQLESYEY [RRI1] | 3.33 ± 0.1
VVLFNRQPSLHRLSILS [RPO31] | 1.44 ± 0.096

Sequence | protein stability index
VVLRLYLKDNITLLTRQ [GRR1] | 1.34 ± 0.11
VVLSFSGLNADSRILIE [PRE6] | 3.19 ± 0.072
VVNITHHELVPKHIRLS [RPB5] | 3.01 ± 0.064
VVRIKGINKIPPKPRKV [RPL7A] | 2.57 ± 0.063
VVSILEAGDSDILTTLA [RPL30] | 3.01 ± 0.068
VVVIDGKGHLVGRLASV [RPL16A] | 1.71 ± 0.1
VVVVLEEPSASIMVELK [SIR3] | 3.28 ± 0.065
VWFSHPRRYGKGSRQCR [RPS29A] | 3.39 ± 0.067
VWNYTFMGTAFNQEGDY [PRP8] | 2.73 ± 0.28
WASKYGQEYPRIIGLSA [BRR2] | 1.87 ± 0.085
WESLAKKQNLSSHQRVF [SWP82] | 2.83 ± 0.06
WIKNEQERQRQIQKNGP [PRP8] | 2.85 ± 0.14
WIRLRTNNTIRYNAKRR [RPL39] | 2.93 ± 0.1
WKEVMFDPSKDVLINEL [CDC53] | 1.8 ± 0.12
WMLSICVEWRLPEIAKE [YJR042W/NUP85] | 1.51 ± 0.11
WNRADNHFKDTYGFSIL [FAS1] | 3.35 ± 0.083
WQIEEAGNSQITSGGFL [SRB5] | 3.07 ± 0.25
WQYYYYTLTEEGVEYLR [RPS10A] | 2.74 ± 0.098
WRAIIKAIFPNTVDGDL [FAS1] | 2.6 ± 0.094
WRILKEDYAIVTKGGTV [PRP28] | 3.26 ± 0.11
WSEITESMSYLPDPILK [MCD1] | 2.92 ± 0.23
WSKESNYDCKVISIVGG [PRP28] | 2.31 ± 0.097
WSKTIKARTNLHQHVVL [RPC34] | 1.71 ± 0.21
WSTTGDNGELDLSGFNI [MED2] | 3.34 ± 0.076
WTEKKGKNVINRERFIS [SMD2] | 1.11 ± 0.19
WTMRIEGRLLDNVQAND [SNF12] | 2.7 ± 0.065

Sequence | protein stability index
WYEASTWIQQFKSTMLQ [ARP7] | 2.6 ± 0.093
YARFKNDFFPGEVVYLR [ITC1] | 2.58 ± 0.1
YASFNDTFVHVTDLSGK [RPS14B] | 2.52 ± 0.084
YATKDGVAHLLNRFNFQ [QCR2] | 1.87 ± 0.29
YAVKAVENGTTSIGIKC [PRE10] | 1.36 ± 0.21
YDNEKTAELIKELKEKE [PUP2] | 3.44 ± 0.094
YDPIKRIDAFNALEHKY [SSN3] | 2.73 ± 0.05
YDPSIGIFGMDFYVVMN [RPL11A] | 2.31 ± 0.055
YDSRSGTHNMYKEIRDV [RPL20A] | 3.16 ± 0.043
YEKELMGDELTRSHFNA [RPN6] | 3.34 ± 0.057
YENSISKDLRSVWKPIA [IRR1] | 2.57 ± 0.064
YEYGAVSVLLISKDCSA [BRR2] | 1.91 ± 0.081
YFFQLQIRSADEPMTTF [RPC11] | 3.06 ± 0.058
YGDGNGKGDNDNGLGPL [SWI3] | 3.31 ± 0.073
YGLGLIYAGFGRDTTDY [RPN2] | 2.95 ± 0.084
YGMSITETFEKPQRTNT [RPB2] | 3.04 ± 0.12
YGRKSFRNNKNDNYSSD [REC8] | 3.32 ± 0.05
YGTATADDADIEMKDVS [MED1] | 3.01 ± 0.061
YIEDFLLVIGGNQRKIL [YJR042W/NUP85] | 1.62 ± 0.078
YIEEKHPTIYESLPQYV [POP4] | 1.91 ± 0.052
YILEAEAAAKEKDELDN [QCR7] | 3.1 ± 0.14
YIQRRLVKALEDIMVHY [RPO21] | 1.4 ± 0.075
YIRKLISSGLLYLQDSN [SRB8] | 1.18 ± 0.11
